According to patent publication US9975943B2, “Polypeptides” (AFFIBODY AB, priority 2013, dated 2018):

Experiments:
[1] = Pharmacokinetic study in mice; assay type: in vivo, mouse; conditions: male NMRI mice; i.v. 92 nmol/kg; serum; Z variants as fusions to PP013-Z03638
Description: Z11947, Z11946 and Z11948 fused to PP013-Z03638 were administered intravenously (i.v.) to male NMRI mice (Charles River, Germany) at a dose of 92 nmol/kg body weight. Sera from groups of three mice were obtained at 0.08, 6, 18, 78, 120, 168 and 240 hours. The concentration of respective Z variant was determined by ELISA.
Half-area 96-well ELISA plates were coated at 4° C. overnight with 50 μl/well of an Z specific goat antibody (produced in-house) diluted to 4 μg/ml in coating buffer (50 mM sodium carbonate, pH 9.6). The antibody solution was poured off and the wells were blocked with 100 μl of PBSC for 1.5 h at RT. The sera were diluted in PBSC plus 1% mouse serum (matrix) from 1:100 to 1:51,200 in a two-fold dilution series in a dilutions plate. […] Bound Z variants were detected with 50 μl/well of rabbit anti-PP013 Ig (produced in-house) diluted to 4 μg/ml in PBSC. […] After 15 minutes of development, the absorbance was measured at 450 nm using a multi-well plate reader (Victor^3). The absorbance values were analyzed using GraphPad Prism 5 to determine the concentrations (cubic-spline curve fit) and area under curve (AUC). […] The resulting curves followed a two compartment model and the terminal half-life was calculated as In2 divided by the slope based on the last three time points.

[2] = biological target: human FcRn (Homo sapiens, UniProt P55899); test: Biacore analysis of Z variants fused to PP013-Z03638; assay type: binding; set-up: made in house; host or cells: human SKOV-3 cells, lentivirally transduced, secreted; purified on immobilized human IgG; conditions: pH 6.0; 40, 160 and 640 nM
Chain of human FcRn (P55899 24-290): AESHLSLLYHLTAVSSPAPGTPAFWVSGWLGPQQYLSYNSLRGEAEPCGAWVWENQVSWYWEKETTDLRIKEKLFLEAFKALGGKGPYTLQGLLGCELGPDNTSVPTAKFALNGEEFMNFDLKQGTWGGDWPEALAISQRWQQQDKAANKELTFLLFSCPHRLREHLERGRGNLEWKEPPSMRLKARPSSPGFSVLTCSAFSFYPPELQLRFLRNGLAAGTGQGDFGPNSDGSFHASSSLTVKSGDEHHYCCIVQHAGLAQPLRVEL
Chain of human FcRn (P61769 21-119 partner): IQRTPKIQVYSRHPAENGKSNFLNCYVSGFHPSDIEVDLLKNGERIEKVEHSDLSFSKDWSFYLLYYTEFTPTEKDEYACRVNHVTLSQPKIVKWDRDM
Description: Expressed and purified Z variants fused to PP013-Z03638 were assayed against human FcRn at pH 6.0 essentially as described for the kinetic analysis in Example 3. The Z variants and the negative control Z03638-PP013 were injected at 40 nM, 160 nM and 640 nM during 1 minute followed by dissociation for 2.5 minutes and equilibration for 1 minute. Kinetic constants and affinities were determined for the Z variants using the BiaEvaluation software.

Z03638-PP013: negative control molecule [Z03638]-GAP(G4S)4TS-[PP013]; Taq polymerase binding Z variant fused to albumin binding polypeptide
terminal half-life [1]: approximately 43 hours
binding to FcRn [2]: negative against FcRn
